Assay: soluble on expression in E. coli; label from the status in PepcDB or PDB records

Sequence	soluble on expression in E. coli
RSFTAFLLFLPVGFLYPLAKKKELALQRQEELRRQFKEAVLILSSSLGAGYSVENAFAGSLRELEELYGREGMITKEFSYIAHQLRMNRTVETLLAEFADRSGLEEIKNFSDIFAVSKRSRGELVSVVNHTVHVISDRLQVREEILTMTAEKQFEQKIMNLVPYCIVIYIEFSSPGFFRQMYG	not soluble
MPSRQLEDPGAGTPSPVRLHALAGFQQRALCHALTFPSLQRLVYSMCSLCQEENEDMVPDALQQNPGAFRLAPALPARPHRGLSTFPGAEHCLRASPKTTLSGGFFVAVIERVEMPT	not soluble
MSLENISQKYSCSIVPLAEKKIFSVNDGLNVILKSLEDTKAEDIVSIDIQGKSSLADYMVIASAHSQRHVSSVADHLLRTWKDSGYGRASVEGLTEGNWVLIDTGDIIIHLFRPEIRLFYNLEKMWLTPDLNNTKLALFGDH	not soluble
MGSDKIHHHHHHMVNEKRLLEEFLELVQIDSETKHEAEICKVLKRKFSDLGVDVKEDDTMDITGHGAGNLICTLKGTKQTDTIYFTSHMDTVVPGNGVKPVVENGYVKTDGTTILGADDKAGLAAMFEAIKVLKEENIEHGTIEFIITVGEESGLIGAKALDRPMITASYGYALDSDGKVGNIIVAAPTQAKVRAAIFGKTAHAGVEPEKGISAITIASKAISKMPLGRIDEETTANIGRFEGGTQTNIVCDEVHILAEARSLVPEKMEAQVQKMKAAFEEAAADMGGRAEVEIEVMYPGFKYQDGDQVVEIAKKAAAKIGRPSELQTSGGGSDANVIAGHGIPTVNLAVGYEQIHTKNEKMPIEELVKTAEMVVAIIEEAAK	not soluble
MSAGVQLPLDLPWRPALGREHFLVAACNASAVALVEAWPHWPAPAACIHGPTGAGKTHLAQVFATRAAAVVLDPAVILGTDPLTLFEGGRAAVIEDADRAGLPEATLFHLLNAARQRGGSLLLTALSPPARWGVHLADLRSRLAALPAEGLCEPDDELMAAVLLKLFSDRGLDVAPGAIGYLLPRMERSFAAARDLVVHADALALREGRAVTVPLLRQLLATPDRADRLEHHHHHH	not soluble
MRVLVRNDKDDFRVKAYAGTNGVLLAMDLDASRRQGLLGFAIEKQTGSKPWLFLFNSLTFPGKAHTFPQYNATPSDQAPLQKFRWADYAVNPGATLNYRVHLAYGNPDAPQLGESLQLSITADNGQPPGQRVIFNRAVAASQAFSRKFPELDALLSANKNLPIEKWPDAPRQWLENGLLEALLGFIQRATDASWSLDIAIYEYQLQAIIDAVNAAFDRGVQVRVLYHAAPGDADTTMNQASLQHLPEANKRGRVTHAIFHDKFIVLGRLDAAGQRQPQSVLCGSTNFTANGVYRQANVLHSLDHVDIATRYLEVFEQVWATPADVGATRTWLTRNNPMQPQAPLFAGFSPRSGQGDLAEFVDIINGARRDLLFVTAFALPDSILDALLGQPHDDVLRYGLQNTASRITGFHADRTAEFAATALLNNGLEGWLKEGLKGQKGNLLVHTKAIVTDFTSEAPVIISGSHNLSVGASQSNDENFLIIRGDIDLADRYGLELLRFYEHYRFRYFARQLALKQVQPLAVDDSWSNAYYLEGDLRQLSRLRFSGRLEHHHHHH	not soluble
MELYDTEEQQVEAIKDWWKENGKAVIFGAVIGLGGLFGWRYYQDSVVAAQEAASQSYSKAMDALQAKGIESEGTIQTFIDANKETEYAVLAAMQLAKAQVDAGQLDEALAQLEWAKGATKDAALKPLLTFRVARLQAEQGQFDDALTQLTSIQEKSWAGRVAELRGDILMRKGDSAAAYAAYTEAQQAEDASQTLQMKLDDLAK	not soluble
MSLHKRMKKKLILAAAGAMAVFSLAACSSGSKDIATMKGSTITVDDFYNQIKEQSTSQQAFSQMVIYKVFEEKYGDKVTDKDIQKNFDEAKEQVEAQGGKFSDALKQAGLTEKTFKKQLKQRAAYDAGLKAHLKITDEDLKTAWASFHPEVEAQIIQVASEDDAKAVKKEITDGGDFTKIAKEKSTDTATKKDGGKIKFDSQATTVPAEVKEAAFKLKDGEVSEPIAATNMQTYQTTYYVVKMTKNKAKGNDMKPYEKEIKKIAEETKLADQTFVSKVISDELKAANVKIKDDAFKNALAGYMQTESSSASSEKKESKSSDSKTSDTKTSDSEKATDSSSKTTESSSKEGGSHHHHHH	soluble
PTEEWLRYVTTARAKSKVDTFLRRKRRELINRGEERVVSVIRTSESMVSAELLDRIAAYFGFLNRETFFYAVGTGTVSLPESFKKL	not soluble
